Laboratory results reported in paper doi:10.1101/343046 (bioRxiv, 2018).
One block for each binder: values may come before it.

Target: T1, GST-KBP (Kinesin-Binding Protein) (human, UniProt Q96EK5 1-621)
T1 sequence (looked up): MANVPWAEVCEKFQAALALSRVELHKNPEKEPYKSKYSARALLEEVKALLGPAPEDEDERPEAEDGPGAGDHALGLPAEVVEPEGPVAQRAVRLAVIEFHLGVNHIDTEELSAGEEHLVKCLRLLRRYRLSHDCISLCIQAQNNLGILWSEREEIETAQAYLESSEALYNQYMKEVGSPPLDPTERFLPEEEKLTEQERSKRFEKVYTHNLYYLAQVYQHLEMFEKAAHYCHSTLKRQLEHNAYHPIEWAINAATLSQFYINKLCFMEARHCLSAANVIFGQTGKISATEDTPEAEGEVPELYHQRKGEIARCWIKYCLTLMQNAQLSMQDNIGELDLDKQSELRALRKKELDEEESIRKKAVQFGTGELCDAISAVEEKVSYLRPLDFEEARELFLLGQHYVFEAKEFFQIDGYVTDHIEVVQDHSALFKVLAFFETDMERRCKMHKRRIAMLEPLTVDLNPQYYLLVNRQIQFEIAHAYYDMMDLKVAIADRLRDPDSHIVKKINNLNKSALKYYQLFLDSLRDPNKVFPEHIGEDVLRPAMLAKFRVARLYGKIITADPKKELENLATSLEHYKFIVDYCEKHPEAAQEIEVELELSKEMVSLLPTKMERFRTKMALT
Test: pull-down

binding result: binds
B1: KIF18A-N480-GFP-His6 (domain or fragment, human, UniProt Q8NI77 1-480, looked up)
chain: MSVTEEDLCHHMKVVVRVRPENTKEKAAGFHKVVHVVDKHILVFDPKQEEVSFFHGKKTTNQNVIKKQNKDLKFVFDAVFDETSTQSEVFEHTTKPILRSFLNGYNCTVLAYGATGAGKTHTMLGSADEPGVMYLTMLHLYKCMDEIKEEKICSTAVSYLEVYNEQIRDLLVNSGPLAVREDTQKGVVVHGLTLHQPKSSEEILHLLDNGNKNRTQHPTDMNATSSRSHAVFQIYLRQQDKTASINQNVRIAKMSLIDLAGSERASTSGAKGTRFVEGTNINRSLLALGNVINALADSKRKNQHIPYRNSKLTRLLKDSLGGNCQTIMIAAVSPSSVFYDDTYNTLKYANRAKDIKSSLKSNVLNVNNHITQYVKICNEQKAEILLLKEKLKAYEEQKAFTNENDQAKLMISNPQEKEIERFQEILNCLFQNREEIRQEYLKLEMLLKENELKSFYQQQCHKQIEMMCSEDKVEKATGKR

binding result: binds
B2: His6-KIF15-N420 (domain or fragment, human, UniProt Q9NS87 1-420, looked up)
chain: MAPGCKTELRSVTNGQSNQPSNEGDAIKVFVRIRPPAERSGSADGEQNLCLSVLSSTSLRLHSNPEPKTFTFDHVADVDTTQESVFATVAKSIVESCMSGYNGTIFAYGQTGSGKTFTMMGPSESDNFSHNLRGVIPRSFEYLFSLIDREKEKAGAGKSFLCKCSFIEIYNEQIYDLLDSASAGLYLREHIKKGVFVVGAVEQVVTSAAEAYQVLSGGWRNRRVASTSMNRESSRSHAVFTITIESMEKSNEIVNIRTSLLNLVDLAGSERQKDTHAEGMRLKEAGNINRSLSCLGQVITALVDVGNGKQRHVCYRDSKLTFLLRDSLGGNAKTAIIANVHPGSRCFGETLSTLNFAQRAKLIKNKAVVNEDTQGNVSQLQAEVKRLKEQLAELASGQTPPESFLTRDKKKTNYMEYFQE
